Results taken from patent publication US20190367620A1 (Merck KGaA, published 2019).
Substitutions are numbered along the chain they refer to.

How the values were obtained:
Experiment in all cases: SPR as in Example 1.8
[1] = molecular target: T1, FGFR1 D2 point mutant A59G (human, UniProt P11362 22-254)
T1 chain: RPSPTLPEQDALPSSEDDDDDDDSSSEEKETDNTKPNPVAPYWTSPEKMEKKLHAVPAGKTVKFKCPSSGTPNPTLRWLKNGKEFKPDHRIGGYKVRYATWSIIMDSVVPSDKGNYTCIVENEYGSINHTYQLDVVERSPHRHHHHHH
Description: (§1) Binding affinities of anti-FGFR1 antibodies to FGFR1 were measured by Surface Plasmon Resonance (SPR) using a GE Healthcare BIAcore 4000 instrument as follows. Goat anti-human Fc antibody (Jackson ImmunoResearch Laboratories #109-005-098) was first immobilized on BIAcore carboxymethylated dextran CM5 chip using direct coupling to free amino groups following the procedure described by the manufacturer. Antibodies were then captured on the CM5 biosensor chip to achieve approximately 200 response units (RU). Binding measurements were performed using the running HBS-EP+ buffer. A 2-fold dilution series of His-tagged FGFR1 proteins were injected at a flow rate of 30 μl/min at 25° C. Association rates (kₒₙ, per mol/s) and dissociation rates (koff, per s) were calculated using a simple 1:1 Langmuir binding model (Biacore 4000 Evaluation Software). The equilibrium dissociation constant (KD, mol) was calculated as the ratio of koff/kₒₙ.
(§2) To obtain a finer, residue-level mapping of the epitope and to complement the HD exchange data, molecular modelling and manual inspection of the crystal structure of FGFR1 [(Beenken et al. 2012); PDB record 3OJV] was used to select solvent exposed residues within and around the epitope identified by HD exchange. The selected residues were mutated either to alanine (large to small) or to glycine if the selected residue was alanine. In total 35 point mutants were designed, expressed and purified in HEK cells, and tested for binding to mAb #A08 using surface plasmon resonance as described in Example 1.8. The affinity of the antibody for wild-type and each mutant was determined and used to calculate the contribution of each epitope residue to the binding energy.

[2] = molecular target: T2, FGFR1 D2 point mutant V56A (human, UniProt P11362 22-254)
T2 chain: T1 chain with V56A, G59A
Description: as §1, §2

[3] = molecular target: T3, FGFR1 D2 point mutant E50A (human, UniProt P11362 22-254)
T3 chain: T1 chain with E50A, G59A
Description: as §1, §2

[4] = molecular target: T4, FGFR1 D2 point mutant P87A (human, UniProt P11362 22-254)
T4 chain: T1 chain with G59A, P87A
Description: as §1, §2

Human FGFR1 D2-His6 = molecular target: T5, Human FGFR1 D2-His6 (human, UniProt P11362 22-254)
T5 construct: also called D2 domain; F3FR1c-D2
T5 sequence: T1 chain with G59A
Description: as §1, §2

[5] = molecular target: T6, FGFR1 D2 point mutant I91A (human, UniProt P11362 22-254)
T6 chain: T1 chain with G59A, I91A
Description: as §1, §2

[6] = molecular target: T7, FGFR1 D2 point mutant S107A (human, UniProt P11362 22-254)
T7 chain: T1 chain with G59A, S107A
Description: as §1, §2

[7] = molecular target: T8, FGFR1 D2 point mutant V96A (human, UniProt P11362 22-254)
T8 chain: T1 chain with G59A, V96A
Description: as §1, §2

[8] = molecular target: T9, FGFR1 D2 point mutant K52A (human, UniProt P11362 22-254)
T9 chain: T1 chain with K52A, G59A
Description: as §1, §2

[9] = molecular target: T10, FGFR1 D2 point mutant A99G (human, UniProt P11362 22-254)
T10 chain: T1 chain with G59A, A99G
Description: as §1, §2

[10] = molecular target: T11, FGFR1 D2 point mutant H89A (human, UniProt P11362 22-254)
T11 chain: T1 chain with G59A, H89A
Description: as §1, §2

B1: mAb #A08 (antibody, V domains shown)
VH: EVQLQESGPGLVKPSGTLSLTCAVSGGSISSNNWWSWVRQPPGKGLEWIGEIYHSGSTSYNPSLKSRVTISVDKSKNQFSLKLNSVTAADTAVYYCARGTDWFDPWGQGTLVTVSS
VL: QAVLTQPPSVSVAPGQTARITCGGNNIGSESVHWYQQKPGQAPVLVVYDDSDRPSGIPERFSGSNSGNTATLTISRVEAGDEADYYCQVWDSTSDHRVFGGGTKLTVL
notes: Only variable domains are tied to the name mAb #A08 (hit); also called #A08 hit; mAb #08
[1]
  Kd: 3.91 nM
[2]
  Kd: 0.27 nM
[3]
  Kd: 0.2 nM
[4]
  Kd: 0.22 nM
Human FGFR1 D2-His6
  Kd: 0.19 nM
[5]
  Kd: 0.19 nM
[6]
  Kd: 0.24 nM
[7]
  Kd: 0.19 nM
[8]
  Kd: 0.23 nM
[9]
  Kd: 0.18 nM
[10]
  Kd: 0.19 nM
